From PMC2734569, “Functional mapping of the fission yeast DNA polymerase δ B-subunit Cdc1 by site-directed and random pentapeptide insertion mutagenesis” (BMC Molecular Biology, 2009)

T1: Cdc1-J15 (Schizosaccharomyces pombe, UniProt P87324 1-462, Gln-GlyValProLeuGln-Val)
T1 construct: Cdc1, S. pombe, with a pentapeptide inserted after residue 203; source: yeast two-hybrid fusion, in S. cerevisiae CTY10-5d
T1 sequence (looked up): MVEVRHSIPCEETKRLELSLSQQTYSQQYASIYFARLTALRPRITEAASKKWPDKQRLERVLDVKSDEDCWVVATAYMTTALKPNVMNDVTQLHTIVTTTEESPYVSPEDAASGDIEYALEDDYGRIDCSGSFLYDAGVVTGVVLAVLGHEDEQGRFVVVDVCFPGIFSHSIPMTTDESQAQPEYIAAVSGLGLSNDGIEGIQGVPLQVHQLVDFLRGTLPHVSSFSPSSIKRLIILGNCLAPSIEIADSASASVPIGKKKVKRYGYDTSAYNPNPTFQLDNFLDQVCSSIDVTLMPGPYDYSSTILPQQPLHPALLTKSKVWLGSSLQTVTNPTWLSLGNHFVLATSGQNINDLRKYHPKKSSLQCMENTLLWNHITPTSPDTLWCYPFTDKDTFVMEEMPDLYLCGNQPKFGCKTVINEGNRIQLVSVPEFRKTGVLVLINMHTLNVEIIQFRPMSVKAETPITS

T2: Cdc1-A8 (Schizosaccharomyces pombe, UniProt P87324 1-462, Pro374Ala)
T2 construct: Cdc1, S. pombe, point mutant; source: yeast two-hybrid fusion, in S. cerevisiae CTY10-5d
T2 sequence (looked up): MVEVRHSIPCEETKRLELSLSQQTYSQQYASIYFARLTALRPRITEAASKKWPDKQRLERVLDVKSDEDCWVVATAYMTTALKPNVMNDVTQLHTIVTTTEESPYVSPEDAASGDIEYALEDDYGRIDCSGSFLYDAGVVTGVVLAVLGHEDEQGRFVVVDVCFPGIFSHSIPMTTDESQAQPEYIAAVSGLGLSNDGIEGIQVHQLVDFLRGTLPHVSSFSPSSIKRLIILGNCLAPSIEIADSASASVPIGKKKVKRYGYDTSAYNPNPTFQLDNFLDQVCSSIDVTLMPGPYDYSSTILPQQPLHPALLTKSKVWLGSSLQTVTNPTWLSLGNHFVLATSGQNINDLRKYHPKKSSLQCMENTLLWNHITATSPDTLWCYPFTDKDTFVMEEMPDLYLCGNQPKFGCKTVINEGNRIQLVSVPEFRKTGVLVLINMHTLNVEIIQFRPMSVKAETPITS

T3: Cdc1-J7 (Schizosaccharomyces pombe, UniProt P87324 1-462, Met-GlyValProLeuMet-Glu)
T3 construct: Cdc1, S. pombe, with a pentapeptide inserted after residue 393; source: yeast two-hybrid fusion, in S. cerevisiae CTY10-5d
T3 sequence (looked up): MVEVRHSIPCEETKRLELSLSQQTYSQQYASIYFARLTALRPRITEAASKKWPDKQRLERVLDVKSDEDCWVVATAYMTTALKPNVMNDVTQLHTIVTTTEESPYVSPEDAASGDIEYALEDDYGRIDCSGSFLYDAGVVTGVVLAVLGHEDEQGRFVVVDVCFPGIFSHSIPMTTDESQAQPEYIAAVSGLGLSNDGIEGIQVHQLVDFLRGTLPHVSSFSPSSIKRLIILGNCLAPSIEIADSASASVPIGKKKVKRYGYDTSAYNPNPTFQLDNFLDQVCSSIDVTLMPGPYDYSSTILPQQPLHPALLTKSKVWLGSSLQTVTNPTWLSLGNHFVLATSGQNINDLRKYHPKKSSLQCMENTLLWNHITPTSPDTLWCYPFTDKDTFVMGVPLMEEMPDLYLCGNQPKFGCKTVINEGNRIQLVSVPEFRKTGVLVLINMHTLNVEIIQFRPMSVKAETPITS

T4: Cdc1-J1 (Schizosaccharomyces pombe, UniProt P87324 1-462, Thr-GlyValProLeuThr-Gly)
T4 construct: Cdc1, S. pombe, with a pentapeptide inserted after residue 141; source: yeast two-hybrid fusion, in S. cerevisiae CTY10-5d
T4 sequence (looked up): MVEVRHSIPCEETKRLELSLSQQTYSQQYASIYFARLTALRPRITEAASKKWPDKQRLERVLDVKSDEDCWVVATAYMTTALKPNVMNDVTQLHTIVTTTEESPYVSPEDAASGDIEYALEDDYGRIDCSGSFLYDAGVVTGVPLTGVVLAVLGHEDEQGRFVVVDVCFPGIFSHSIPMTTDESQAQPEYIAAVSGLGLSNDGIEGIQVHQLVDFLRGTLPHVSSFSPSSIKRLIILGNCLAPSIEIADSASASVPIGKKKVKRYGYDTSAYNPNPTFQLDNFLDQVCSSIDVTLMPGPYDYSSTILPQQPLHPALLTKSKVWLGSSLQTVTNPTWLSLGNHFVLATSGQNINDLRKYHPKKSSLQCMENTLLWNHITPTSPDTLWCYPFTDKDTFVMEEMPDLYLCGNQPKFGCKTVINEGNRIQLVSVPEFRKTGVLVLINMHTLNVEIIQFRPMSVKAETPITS


Legend:
Conditions in all cases: partners not purified
Cdc1-J15 = biological target: T1, Cdc1-J15; test: two-hybrid; LexA-Cdc1 bait (pBTM116 or pBTM116BN) with Gal4-Pol3 prey and co-expressed c-myc-tagged Cdc27 (pAA-Cdc27) in S. cerevisiae CTY10-5d; ONPG liquid culture beta-galactosidase assay, mean of triplicates, as percent of wild-type Cdc1
Cdc1-A8 = biological target: T2, Cdc1-A8; test: as above
Cdc1-J7 = biological target: T3, Cdc1-J7; test: as above
Cdc1-J1 = biological target: T4, Cdc1-J1; test: two-hybrid; LexA-Cdc1 bait (pBTM116 or pBTM116BN) with Gal4 activation domain-Cdc27 prey (pGAD2F-Cdc27) in S. cerevisiae CTY10-5d; ONPG liquid culture beta-galactosidase assay, mean of triplicates, as percent of wild-type Cdc1

two-hybrid beta-galactosidase activity, % of wild-type Cdc1 (Cdc1-J15) [%] | two-hybrid beta-galactosidase activity, % of wild-type Cdc1 (Cdc1-A8) [%] | two-hybrid beta-galactosidase activity, % of wild-type Cdc1 (Cdc1-J7) [%] | two-hybrid beta-galactosidase activity, % of wild-type Cdc1 (Cdc1-J1) [%] | Binder
1 | 17 | < 1 | – | Pol3 (fission yeast DNA polymerase delta catalytic subunit) (natural protein, Schizosaccharomyces pombe, UniProt P30316 1-1086, looked up, DNA polymerase delta catalytic subunit Pol3, S. pombe; prey plasmid named pACT-Pol3 in the results and pGAD2F-Pol3 in the methods; also called Gal4-Pol3; pACT-Pol3; source: yeast two-hybrid fusion, in S. cerevisiae CTY10-5d) MTDRSSNEGVVLNKENYPFPRRNGSIHGEITDVKRRRLSERNGYGDKKGSSSKEKTSSFEDELAEYASQLDQDEIKSSKDQQWQRPALPAINPEKDDIYFQQIDSEEFTEGSVPSIRLFGVTDNGNSILVHVVGFLPYFYVKAPVGFRPEMLERFTQDLDATCNGGVIDHCIIEMKENLYGFQGNEKSPFIKIFTTNPRILSRARNVFERGEFNFEELFPVGVGVTTFESNTQYLLRFMIDCDVVGMNWIHLPASKYQFRYQNRVSNCQIEAWINYKDLISLPAEGQWSKMAPLRIMSFDIECAGRKGVFPDPSIDPVIQIASIVTQYGDSTPFVRNVFCVDTCSQIVGTQVYEFQNQAEMLSSWSKFVRDVDPDVLIGYNICNFDIPYLLDRAKSLRIHNFPLLGRIHNFFSVAKETTFSSKAYGTRESKTTSIPGRLQLDMLQVMQRDFKLRSYSLNAVCSQFLGEQKEDVHYSIITDLQNGTADSRRRLAIYCLKDAYLPQRLMDKLMCFVNYTEMARVTGVPFNFLLARGQQIKVISQLFRKALQHDLVVPNIRVNGTDEQYEGATVIEPIKGYYDTPIATLDFSSLYPSIMQAHNLCYTTLLDSNTAELLKLKQDVDYSVTPNGDYFVKPHVRKGLLPIILADLLNARKKAKADLKKETDPFKKAVLDGRQLALKVSANSVYGFTGATNGRLPCLAISSSVTSYGRQMIEKTKDVVEKRYRIENGYSHDAVVIYGDTDSVMVKFGVKTLPEAMKLGEEAANYVSDQFPNPIKLEFEKVYFPYLLISKKRYAGLFWTRTDTYDKMDSKGIETVRRDNCPLVSYVIDTALRKMLIDQDVEGAQLFTKKVISDLLQNKIDMSQLVITKALSKTDYAAKMAHVELAERMRKRDAGSAPAIGDRVAYVIIKGAQGDQFYMRSEDPIYVLENNIPIDAKYYLENQLSKPLLRIFEPILGEKASSLLHGDHTRTISMAAPSVGGIMKFAVKVETCLGCKAPIKKGKTALCENCLNRSAELYQRQVAQVNDLEVRFARLWTQCQRCQGSMHQDVICTSRDCPIFYMRIAEHKKLQQSVDLLKRFDEMSW
– | – | – | < 1 | Cdc27 (fission yeast DNA polymerase delta C-subunit) (natural protein, Schizosaccharomyces pombe, UniProt P30261 1-372, looked up, DNA polymerase delta C-subunit Cdc27, S. pombe; prey plasmid pGAD2F-Cdc27; also called pGAD2F-Cdc27; source: yeast two-hybrid fusion, in S. cerevisiae CTY10-5d) MEEWRNFLDIKVINESSLVTVDNLSLQLDISSEKAQEYLNMFYQGNDFLYPIYLIHGQPIDDEINLEIDEESQPISNFPVLQYILCDKSSLQEKQSRLKSGYKTVIFALSSAPLSDFDELLPAVYEIREKDVLYKKEDADKYGFIFNENSVPRVLKKAPSTHSPQLSVPSKTSTIDKTDTRSTEKTKGKDIFSNARNQKGNSSRKNKKAPLENHKEKEPLLPKEEKLSEQAKRERDDLKNIMQLEDESVSTTSVHDSEDDNLDSNNFQLEIGTEAKSAAPDEPQEIIKSVSGGKRRGKRKVKKYATTKDEEGFLVTKEEEVWESFSEDENISTGTSNVVRNKPTTVNIATKKKNTAQSKPQQKSIMSFFGKK
